In publication PMC9593060:

Biological target: T1, YycF (Staphylococcus aureus (ATCC29213?)) (UniProt Q9RDT5)
T1 sequence: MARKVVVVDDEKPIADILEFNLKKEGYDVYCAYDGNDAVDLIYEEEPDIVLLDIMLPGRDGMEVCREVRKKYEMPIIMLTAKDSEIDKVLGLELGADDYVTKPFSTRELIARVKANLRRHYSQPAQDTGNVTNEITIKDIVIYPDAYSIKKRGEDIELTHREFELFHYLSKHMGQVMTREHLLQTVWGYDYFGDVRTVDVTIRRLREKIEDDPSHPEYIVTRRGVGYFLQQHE
Assay: EMSA
Details: binding buffer not stated

In the case of “TGTGAAATATCAATTTGATTGAAAATTAGACAAAAATAAAGAAATGACTTCAACATAATCATCAAAGTCATTTCGTTGAGTTGACTACTGCCAAGATAACATCGTCACGACTAGGACATTGAATTATGTCCCAGACTCATCGACT (double strand) [PcodY (codY promoter region)]”, the binding is reported as “binds”.
